Molecular target: T1, His-p55 (recombinant His-tagged erythrocyte p55/MPP1) (human, UniProt Q00013-1 1-466)
T1 sequence (looked up): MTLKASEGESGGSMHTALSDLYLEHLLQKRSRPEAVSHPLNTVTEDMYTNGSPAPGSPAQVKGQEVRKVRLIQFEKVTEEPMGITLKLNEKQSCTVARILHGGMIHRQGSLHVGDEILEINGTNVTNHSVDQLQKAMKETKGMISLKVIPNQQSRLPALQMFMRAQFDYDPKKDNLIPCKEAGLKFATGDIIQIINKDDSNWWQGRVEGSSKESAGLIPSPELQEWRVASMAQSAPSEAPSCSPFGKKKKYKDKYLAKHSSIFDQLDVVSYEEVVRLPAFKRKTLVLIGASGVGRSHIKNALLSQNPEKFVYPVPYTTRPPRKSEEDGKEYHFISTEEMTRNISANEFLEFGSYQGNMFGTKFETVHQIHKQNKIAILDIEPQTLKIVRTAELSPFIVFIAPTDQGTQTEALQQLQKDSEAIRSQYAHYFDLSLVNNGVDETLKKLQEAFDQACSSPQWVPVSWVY
Experiment: SPR

Kd: 3.7 nM
B1: MBP-NF2-N (merlin N-terminal half, aa 1-311, including the FERM domain) (domain or fragment, human, UniProt P35240 1-311, looked up)
chain: MAGAIASRMSFSSLKRKQPKTFTVRIVTMDAEMEFNCEMKWKGKDLFDLVCRTLGLRETWFFGLQYTIKDTVAWLKMDKKVLDHDVSKEEPVTFHFLAKFYPENAEEELVQEITQHLFFLQVKKQILDEKIYCPPEASVLLASYAVQAKYGDYDPSVHKRGFLAQEELLPKRVINLYQMTPEMWEERITAWYAEHRGRARDEAEMEYLKIAQDLEMYGVNYFAIRNKKGTELLLGVDALGLHIYDPENRLTPKISFPWNEIRNISYSDKEFTIKPLDKKIDVFKFNSSKLRVNKLILQLCIGNHDLFMRRR

— paper PMC3959803 (Experimental biology and medicine (Maywood, N.J.), 2009)
